Measured values taken from patent publication US8357523B2, “Beta-glucosidase variant enzymes and related polynucleotides” (Codexis, Inc., priority 2009, dated 2013).

Assay: High throughput cellobiose assay: fold improvement in cellobiase activity of CelA variants over a control enzyme (Tables 2A-2D, 3, 5, 6, 7)
Type: biochemical
Details: 3.3 g/l cellobiose, 65° C. and pH 5 (incubation overnight); relative to Control #5, Variant No. 366 (SEQ ID NO: 9)

Molecule	Fold Improvement over Control Variant
432 (protein, truncated; signal peptide F-10T, I-14V) SARITQEGAAPAAMLHPEKWPRPATQRLIDPAVEKRVDALLKQLSVEEKVGQVIQGDIGTITPEDLRKYPLGSILAGGDSGPNGDDRAPPKEWLDLADAFYRVSLEKRPGHTPIPVLFGIDAVHGHNNIGSATIFPHNIALGMTRDTELLRRIGEVTAEEMAATGIDWTFAPALSVPRDDRWGRTYEGFSEDPEIVASYSAAYVEGFQGKYGSKDFMAPGRAVACAKHFLADGGTDQGRDQGDARISEDELIRIHNAGYPPAIDAGVLTVMASFSSWQGIKHHGHKQLLTDVLKGQMGFNGFIVGDWNAHDQVPGCTKFNCPTSLIAGLDMYMAADSWKQLYENTLAQVKDGTIPMARLDDAVRRILRVKVLAGLFEKPAPKDRPGLPGLETLGSPEHRAVGREAVRKSLVLLKNDKGTLPLSPKARVLVAGDGADNIGKQSGGWTISWQGTGNRNDEFPGATSILGGIRDAVADAGGSVEFDVAGQYKTKPDVAIVVFGENPYAEFRGDVETLEYQPDQKQDLTLLKKLKDQGIPVVAVFLSGRPMWVNPELNASDAFVAAWLPGTEGGGVADVLFTDKAGKVQYDFAGKLSYSWPRTAAQTTVNRGDADYNPLFAYGYGLTYKDKSKVGTLPEESGVPAEARQNAGIYFRAGALRLPGRFL	++ (++ = 1.1 to 2.0 fold improvement over control Variant No. 366)
433 (protein, truncated; signal peptide F-10T) SARITQEGAAPAAMLHPEKWPRPATQRLIDPAVEKRVDALLKQLSVEEKVGQVIQGDIGTITPEDLRKYPLGSILAGGDSGPNGDDRAPPKEWLDLADAFYRVSLEKRPGHTPIPVLFGIDAVHGHNNIGSATIFPHNIALGMTRDPELLRRIGEVTAEEMAATGIDWTFAPALSVPRDDRWGRTYEGFSEDPEIVASYSAAIVEGFQGKYGSKDFMAPGRAVACAKHFLADGGTDQGRDQGDARISEDELIRIHNAGYPPAIDAGVLTVMASFSSWQGIKHHGHKQLLTDVLKGQMGFNGFIVGDWNAHDQVPGCTKFNCPTSLIAGLDMYMAADSWKQLYENTLAQVKDGTIPMARLDDAVRRILRVKVLAGLFEKPAPKDRPGLPGLETLGSPEHRAVGREAVRKSLVLLKNDKGTLPLSPKARVLVAGDGADNIGKQSGGWTISWQGTGNRNDEFPGATSILGGIRDAVADAGGSVEFDVAGQYKTKPDVAIVVFGEEPYAEFRGDVETLEYQPDQKQDLTLLKKLKDQGIPVVAVFLSGRPMWVNPELNASDAFVAAWLPGTEGGGVADVLFTDKAGKVQHDFAGKLSYSWPRTAAQTTVNRGDADYNPLFAYGYGLTYKDKSKVGTLPEESGVPAEARQNAGIYFRAGALRLPGRFL	++ (++ = 1.1 to 2.0 fold improvement over control Variant No. 366)
434 (protein, truncated; signal peptide F-10T) SAAITQEGAAPAPMLHPEKWPRPATQRLIDPAVEKRVDALLKQLSVEEKVGQVIQGDIGTITPEDLRKYPLGSILAGGDSGPNGDDRAPPKEWLDLADAFYRVSLEKRPGHTPIPVLFGIDAVHGHNNIGSATIFPHNIALGMTRDPELLRRIGEVTAEEMAATGIDWTFAPALSVVRDDRWGRTYEGFSEDPEIVASYSAAYVEGFQGKYGSKDFMAPGRAVACAKHFLADGGTDQGRDQGDARISEDELIRIHNAGYPPAIDAGVLTVMASFSSWQGIKHHGHKQLLTDVLKGQMGFNGFIVGDWNAHDQVPGCTKFNCPTSLIAGLDMYMAADSWKQLYENTLAQVKDGTIPMARLDDAVRRILRVKVLAGLFEKPAPKDRPGLPGLETLGSPEHRTVGREAVRKSLVLLKNDKGTLPLSPKARVLVAGDGADNIGKQSGGWTISWQGTGNRNDEFPGATSILGGIRDAVADAGGSVEFDVAGQYKTKPDVAIVVFGENPYAEFRGDVETLEYQPDQKQDLTLLKKLKDQGIPVVAVFLSGRPMWVNPELNASDAFVAAWLPGTEGGGVADVLFTDKAGKVQHDFAGKLSYSWPRTAAQTTVNRGDADYNPLFAYGYGLTYKDKSKVGTLPEESGVPAEARQNAGIYFRAGALRLPGRFL	++ (++ = 1.1 to 2.0 fold improvement over control Variant No. 366)
393 (protein, truncated; signal peptide F-10T) SARSTQEGAAPAAMLHPEKWPRPATQRLIDPAVEKRVDALLKQLSVEEKVGQVIQGDIGTITPEDLRKYPLGSILAGGDSGPNGDDRAPPKEWLDLADAFYRVSLEKRPGHTPIPVLFGIDAVHGHNNIGSATIFPHNIALGMTRDPELLRRIGEVTAEEMAATGIDWTFAPALSVPRDDRWGRTYEGFSEDPEIVASYSAAIVEGFQGKYGSKDFMAPGRAVACAKHFLADGGTDQGRDQGDARISEDELIRIHNAGYPPAIDAGVLTVMASFSSWQGIKHHGHKQLLTDVLKGQMGFNGFIVGDWNAHDQVPGCTKFNCPTSLIAGLDMYMAADSWKQLYENTLAQVKDGTIPMARLDDAVRRILRVKVLAGLFEKPAPKDRPGLPGLETLGSPEHRAVGREAVRKSLVLLKNDKGTLPLSPKARVLVAGDGADNIGKQSGGWTISWQGTGNRNDEFPGATSILGGIRDAVADAGGSVEFDVAGQYKTKPDVAIVVFGEEPYAEFRGDVETLEYQPDQKQDLTLLKKLKDQGIPVVAVFLSGRPMWVNPELNASDAFVAAWLPGTEGGGVADVLFTDKAGKVQHDFAGKLSYSWPRTAAQTTVNRGDADYNPLFAYGYGLTYKDKSKVGTLPEESGVPAEARQNAGIYFRAGALRLPGRFL	++ (++ = 1.1 to 2.0 fold improvement over control Variant No. 366)
395 (protein, truncated; signal peptide F-10T) SARITQEGAAPAAMLHPEKWPRPATQRLIDPAVEKRVDALLKQLSVEEKVGQVIQGDIGTVTPEDLRKYPLGSILAGGDSGPNGDDRAPPKEWLDLADAFYRVSLEKRPGHTPIPVLFGIDAVHGHNNIGSATIFPHNIALGMTRDPELLRRIGEVTAEEMAATGIDWTFAPALSVPRDDRWGRTYEGFSEDPEIVASYSAAIVEGFQGKYGSKDFMAPGRAVACAKHFLADGGTDQGRDQGDARISEDELIRIHNAGYPPAIDAGVLTVMASFSSWQGIKHHGHKQLLTDVLKGQMGFNGFIVGDWNAHDQVPGCTKFNCPTSLIAGLDMYMAADSWKQLYENTLAQVKDGTIPMARLDDAVRRILRVKVLAGLFEKPAPKDRPGLPGLETLGSPEHRAVGREAVRKSLVLLKNDKGTLPLSPKARVLVAGDGADNIGKQSGGWTISWQGTGNRNDEFPGATSILGGIRDAVADAGGSVEFDVAGQYKTKPDVAIVVFGEEPYAEFRGDVETLEYQPDQKQDLTLLKKLKDQGIPVVAVFLSGRPMWVNPELNASDAFVAAWLPGTEGGGVADVLFTDKAGKVQHDFAGKLSYSWPRTAAQTTVNRGDADYNPLFAYGYGLTYKDKSKVGTLPEESGVPAEARQNAGIYFRAGALRLPGRFL	++ (++ = 1.1 to 2.0 fold improvement over control Variant No. 366)
396 (protein, truncated; signal peptide F-10T) SAASTQEGAAPAAMLHPEKWPRPATQRLIDPAVEKRVDALLKQLSVEEKVGQVIQGDIGTITPEDLRKYPLGSILAGGDSGPNGDDRAPPKEWLDLADAFYRVSLEKRPGHTPIPVLFGIDAVHGHNNIGSATIFPHNIALGMTRDPELLRRIGEVTAEEMAATGIDWTFAPALSVPRDDRWGRTYEGFSEDPEIVASYSAAIVEGFQGKYGSKDFMAPGRAVACAKHFLADGGTDQGRDQGDARISEDELIRIHNAGYPPAIDAGVLTVMASFSSWQGIKHHGHKQLLTDVLKGQMGFNGFIVGDWNAHDQVPGCTKFNCPTSLIAGLDMYMAADSWKQLYENTLAQVKDGTIPMARLDDAVRRILRVKVLAGLFEKPAPKDRPGLPGLETLGSPEHRAVGREAVRKSLVLLKNDKGTLPLSPKARVLVAGDGADNIGKQSGGWTISWQGTGNRNDEFPGATSILGGIRDAVADAGGSVEFDVAGQYKTKPDVAIVVFGEEPYAEFRGDVETLEYQPDQKQDLTLLKKLKDQGIPVVAVFLSGRPMWVNPELNASDAFVAAWLPGTEGGGVADVLFTDKAGKVQHDFAGKLSYSWPRTAVQTTVNRGDADYNPLFAYGYGLTYKDKSKVGTLPEESGVPAEARQNAGIYFRAGALRLPGRFL	++ (++ = 1.1 to 2.0 fold improvement over control Variant No. 366)
397 (protein, truncated; signal peptide F-10T) SARITQEGAAPAAMLHPEKWPRPATQRLIDPAVEKRVDALLKQLSVEEKVGQVIQGDIGTITPEDLRKYPLGSILAGGDSGPNGDDRAPPKEWLDLADAFYRVSLEKRPGHTPIPVLFGIDAVHGHNNIGSATIFPHNIALGMTRDPELLRRIGEVTAEEVAATGIDWTFAPALSVVRDDRWGRTYEGFSEDPEIVASYSAAYVEGFQGKYGSKDFMAPGRIVACAKHFLADGGTDQGRDQGDARISEDELIRIHNAGYPPAIDAGVLTVMASFSSWQGIKHHGHKQLLTDVLKGQMGFNGFIVGDWNAHDQVPGCTKFNCPTSLIAGLDMYMAADSWKQLYENTLAQVKDGTIPMARLDDAVRRILRVKVLAGLFEKPAPKGRPGLPGLETLGSPEHRAVGREAVRKSLVLLKNDKGTLPLSPKARVLVAGDGADNIGKQSGGWTISWQGTGNRNDEFPGATSILGGIRDAVADAGGSVEFDVAGQYKTKPDVAIVVFGEEPYAEFRGDVETLEYQPDQKQDLTLLKKLKDQGIPVVAVFLSGRPMWVNPELNASDAFVAAWLPGTEGGGVADVLFTDKAGKVQHDFAGKLSYSWPRTAAQTTVNRGDADYNPLFAYGYGLTYKDKSKVGTLPEESGVPAEARQNAGIYFRAGALRLPGRFL	++ (++ = 1.1 to 2.0 fold improvement over control Variant No. 366)
398 (protein, truncated; signal peptide F-10T) SARITQEGAAPAAMLHPEKWPRPATQRLIDPAVEKRVDALLKQLSVEEKVGQVIQGDIGTITPEDLRKYPLGSILAGGDSGPNGDDRAPPKEWLDLADAFYRVSLEKRPGHTPIPVLFGIDAVHGHNNIGSATIFPHNIALGMTRDPELLRRIGEVTAEEMAATGIDWTFAPALSVPRDDRWGRTYEGFSEDPEIVASYSAAIVEGFQGKYGTKDFMAPGRAVACAKHFLADGGTDQGRDQGDARISEDELIRIHNAGYPPAIDAGVLTVMASFSSWQGIKHHGHKQLLTDVLKGQMGFNGFIVGDWNAHDQVPGCTKFNCPTSLIAGLDMYMAADSWKQLYENTLAQVKDGTIPMARLDDAVRRILRVKVLAGLFEKPAPKDRPGLPGLETLGSPEHRAVGREAVRKSLVLLKNDKGTLPLSPKARVLVAGDGADNIGKQSGGWTISWQGTGNRNDEFPGATSILGGIRDAVADAGGSVEFDVAGQYKTKPDVAIVVFGEEPYAEFRGDVETLEYQPDQKQDLTLLKKLKDQGIPVVAVFLSGRPMWVNPELNASDAFVAAWLPGTEGGGVADVLFTDKAGKVQHDFAGKLSYSWPRTAAQTTVNRGDADYNPLFAYGYGLTYKDKSKVGTLPEESGVPAEARQNAGIYFRAGALRLPGRFL	++ (++ = 1.1 to 2.0 fold improvement over control Variant No. 366)
